Source: the supplement of paper PMC10567573

B1: TPD52L2 (parent)
chain: EAEEEELRAELTKVEEEIVTLRQV

Variants of: B1
Assay: protein stability index of a GFP-peptide fusion (GPS, HEK-293T) (PSI 1-6); higher = more stable
Details: c terminus: a fixed tail appended
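Also: lentivirally expressed fusions sorted by FACS into six bins by GFP to DsRed ratio, PSI derived from sequencing read proportions per bin multiplied by bin number.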

Protein stability index of substitutions, site by site:
E10: D 4.36 | R 4.11 | V 2.72 | L 2.96 | P 5.46 | A 3.05 | K 4.91 | Q 3.98 | G 5.34 | N 4.91 | C 4.84 | M 3.3 | Y 4.05 | T 3.21 | F 3.64 | I 2 | H 4.38 | S 3.49
A9: Q 4 | R 3.64 | Y 3.44 | E 4.34 | C 3.98 | M 2.95 | G 4.9 | W 2.51 | F 2.4 | N 3.79 | S 4.32 | I 2.37 | V 3.74 | H 2.82 | K 3.68 | L 2.62 | T 3.67 | P 5.11 | D 3.93
L21: R 5.56 | V 5.22 | P 5.57 | W 3.63 | E 5.4 | Q 5.13 | C 4.72 | N 5.73 | G 5.24 | D 5.73 | F 4.09 | I 4.25 | H 4.08 | M 4.72 | K 5.86 | S 5.68 | T 5.65 | A 4.96 | Y 3.34
R22: A 4.54 | E 4.25 | L 3.06 | D 3.54 | C 3.66 | W 2.92 | F 2.33 | M 3.17 | G 3.79 | T 4.18 | S 4.37 | I 2.44 | Y 2.54 | H 3.96 | V 3.4 | Q 3.77 | K 3.8 | P 4.85 | N 3.9
V24: P 4.65 | S 4.52 | N 4.72 | R 4.39 | Q 4.14 | E 4.35 | M 3.42 | I 4.13 | G 3.41 | H 3.92 | K 4.87 | L 3.78 | A 4.41 | F 3.25 | D 5.2 | C 3.63
E15: Y 3.24 | A 4.41 | F 3.61 | V 2.8 | P 5.04 | G 5.31 | S 4.39 | H 5.12 | M 2.91 | D 5.55 | T 4.63 | Q 4.9 | I 1.81 | C 3.94 | R 4.72 | K 5.01 | L 1.83 | W 3.03 | N 5.27
T12: E 4.22 | R 3.12 | L 3.08 | Y 3.39 | W 2.1 | P 5.06 | H 3.51 | Q 3.87 | A 3.35 | I 3.51 | V 4.06 | S 3.75 | C 3.63 | F 3.83 | D 4.91 | M 2.65 | G 4.8 | N 3.9 | K 3.75
E17: R 4.62 | W 2.28 | H 3.44 | I 3.46 | P 4.66 | Y 2.35 | V 4.05 | C 4.63 | G 5.32 | K 4.67 | M 4.02 | Q 3.86 | S 4.29 | D 5.55 | T 4.63 | A 4.14 | L 4.24 | F 2.87 | N 4.54
V19: T 4.44 | F 3.27 | Y 3.71 | D 4.82 | N 4.51 | E 4.21 | S 3.98 | L 3.69 | M 3.52 | Q 3.04 | C 3.78 | A 3.96 | I 2.96 | W 2.54 | R 3.88 | H 3.9 | G 4.79 | P 5.45 | K 3.89
L11: G 5.38 | E 4.83 | I 4.98 | M 3.99 | N 5.25 | Q 5.67 | A 5.8 | V 5.2 | H 5.43 | P 5.64 | F 5.09 | D 5.92 | T 5.33 | Y 5.51 | S 5.65 | R 5.22 | K 5.55 | W 5 | C 5.5
Q23: C 3.9 | M 3.65 | H 3.6 | Y 5.02 | A 3.56 | E 3.82 | I 2.98 | N 4.21 | T 4.06 | D 4.43 | W 4.35 | P 4.58 | R 3.73 | K 4.04 | G 4.54 | L 3.25 | V 3.11 | F 3.19 | S 3.61
L7: F 5.23 | Y 5.29 | W 4.92 | Q 5.62 | T 5.39 | P 5.55 | H 5.2 | V 5.77 | K 5.49 | I 5.39 | R 5.49 | S 5.58 | M 5.21 | N 5.41 | G 5.14
R8: H 3.91 | L 3.6 | M 3.79 | D 4.91 | F 3.66 | G 4.55 | Q 3.96 | C 4.16 | P 5.43 | K 4.59 | V 3.97 | A 4.23 | T 5.17 | Y 3.41 | S 4.79 | E 4.84 | N 4.51 | I 3.83 | W 2.59
E16: S 3.46 | L 3.06 | N 3.93 | Q 3.52 | V 3.27 | H 3.87 | W 2.66 | P 4.79 | F 2.76 | T 4.33 | C 3.82 | R 2.79 | I 2.61 | A 3.85 | G 4.84 | K 3.25 | Y 1.82 | M 2.59 | D 4.17
I18: F 4.52 | H 5.24 | R 5.71 | E 5.86 | K 5.19 | C 4.55 | M 5.11 | P 5.69 | Q 5.41 | D 5.66 | W 5.09 | S 5.45 | N 4.93 | V 5.35 | G 5.67 | A 5.93 | T 5.19 | L 3.92 | Y 5.12
K13: M 4.18 | I 3.5 | A 3.96 | P 5.55 | T 5.15 | E 5.82 | S 4.54 | F 4.25 | R 3.27 | N 5.26 | L 4.06 | Y 4.08 | H 5.04 | Q 4.55 | V 4.33 | W 4.21 | C 5.11 | D 5.76 | G 5.18
T20: C 3.46 | Y 2.77 | I 3.06 | S 3.56 | M 2.92 | R 3.3 | H 3.56 | N 3.34 | L 2.91 | A 3.9 | F 2.85 | P 4.98 | Q 4.04 | K 3.44 | W 2.99 | D 5.3 | E 3.84 | V 3.92 | G 3.86
V14: Y 5.05 | S 4.42 | H 5.7 | T 4.37 | L 3.82 | M 4.43 | C 3.54 | P 5.75 | R 5.35 | E 5.67 | N 5.33 | I 3.57 | F 5.01 | K 5.72 | Q 5.59 | A 4.05 | D 4.74 | G 3.76 | W 4.05
